Like-named read-outs stand apart in the source and are kept apart here.

Consider 3 molecules from patent US20250154256A1 (AUGUSTA UNIVERSITY RESEARCH INSTITUTE, published 2025).

The target in one assay is T1, human PD-1-Fc (human, UniProt Q15116 25-170, limits assumed).
T1 construct: ELISA antigen
Kind of assay: ELISA, binding to human PD-1-Fc. (An ELISA detects its analyte on a solid surface through an enzyme-linked reagent.)

In assay [1] the target is T2, human PD-1 (human, UniProt Q15116 25-167, limits assumed).
T2 construct: Analyte in solution in the Biacore runs; also called programmed cell death protein 1
T2 sequence (Q15116 25-167 limits assumed): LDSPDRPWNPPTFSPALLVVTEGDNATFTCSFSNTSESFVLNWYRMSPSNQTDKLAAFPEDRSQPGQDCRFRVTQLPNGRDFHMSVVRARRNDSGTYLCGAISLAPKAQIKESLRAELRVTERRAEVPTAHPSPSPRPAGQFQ
Kind of assay: SPR (Biacore), antibody as ligand, PD-1 as analyte. Background: In SPR one partner is held on a chip, and binding of the other changes the refractive index at the surface.

In assay [2] the target is T3, mouse PD-1 (mouse, UniProt Q02242 25-167, limits assumed).
T3 construct: Analyte in solution in the Biacore runs
T3 sequence: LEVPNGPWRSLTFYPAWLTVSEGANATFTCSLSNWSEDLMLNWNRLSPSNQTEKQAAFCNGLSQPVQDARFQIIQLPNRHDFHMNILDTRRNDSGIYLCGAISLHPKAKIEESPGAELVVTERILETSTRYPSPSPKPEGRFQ
Kind of assay: SPR (Biacore), antibody as ligand, PD-1 as analyte.

Assay [3] has as its target T2, human PD-1. Kind of assay: SPR (Biacore), antibody as ligand, PD-1 as analyte. The source holds these as a separate data set.
Assay [4] deals with T3, mouse PD-1. Kind of assay: SPR (Biacore), antibody as ligand, PD-1 as analyte. The source holds these as a separate data set.
Assay [5] concerns the target T2, human PD-1. Kind of assay: SPR (Biacore), antibody as ligand, PD-1 as analyte. This is another data set of the same source.

T1 sequence (Q15116 25-170 limits assumed): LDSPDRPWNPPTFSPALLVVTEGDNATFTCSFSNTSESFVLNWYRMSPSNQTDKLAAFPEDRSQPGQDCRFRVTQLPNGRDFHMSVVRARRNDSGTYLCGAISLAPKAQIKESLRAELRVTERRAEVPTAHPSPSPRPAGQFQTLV

B1: monoclonal antibody 4G9 (antibody, mouse IgG2b, kappa, V domains shown)
VH: QIQLVQSGPELKKPGETVKISCKASGYTFTTYGMTWVKQAPGKGLKWMGWINTYSGVPTYADDFKGRFAFSLETSASTAYLQINNLKNEDTATYFCARGGRGFAYWGQGTLVTVSA
VL: DILLTQSPAILSVSPGERVSFSCRASQSIGTSIHWYQQRTNGSPRLLIKYASESISGIPSRFSGSGSGTDFTLSINSVESEDIADYYCQQSNSWPYTFGGGTKLEIKR
notes: also called 4G9 anti-PD-1 antibody
As to B1, the “EC50 (read off the curve)” value with human PD-1-Fc was about 0.5 µg/mL. In addition, in the assay with human PD-1 [1], the Ka was 952000 M⁻¹ and the Kd worked out at 1050 nM. For the same molecule, in the assay with mouse PD-1 [2], the Ka came out at 194000 M⁻¹, the dissociation constant (Kd) was found to be 5.15 µM, the koff was determined as 0.0103 s⁻¹ and the kon was determined as 2000 M⁻¹ s⁻¹.

B2: monoclonal antibody 5C2 (antibody, IgG1, V domains shown)
VH: QVQLQQPGAELVKPGASVKVSCKASGYTFTSYWMHWVKQRPGQGLEWIGRIHPSDSDTNYNQKFKGKATLTVDKSSSTAYMQLSSLTSEDSAVYYCAPYGNYASGFAYWGQGTLVTVSA
VL: DIVMTQSHKFMSTSVGDRVSITCKASQDVSTAVAWYQQKPGQSPKLLIYWASTRHTGVPDRFTGSGSGTDYTLTISSVQAEDLALYYCQQHYSTPWTFGGGTKLEIKR
notes: the two clones are reported with different SPR values; also called 5C2 anti-PD-1 antibody
Consider B2, for which, in the assay with human PD-1-Fc, the “EC50 (read off the curve)” value was about 1 µg/mL. In addition, the Ka was determined as 202000 M⁻¹ with human PD-1 [3] and 1.18e+06 M⁻¹ with mouse PD-1 [4]. Moreover, the Kd with human PD-1 [3] is 4.95 µM; with mouse PD-1 [4] it was 850 nM.

B3: monoclonal antibody 4C12 (antibody, mouse IgG1, kappa, V domains shown)
VH: QVQLQQPGAELVKPGASVKVSCKASGYTFTSYWMHWVKQRPGQGLEWIGRIHPSDSDTNYNQKFKGKATLTVDKSSSTAYMQLSSLTSEDSAVYYCAPYGNYASGFAYWGQGTLVTVSA
VL: DIVMTQSHKFMSTSVGDRVSITCKASQDVSTAVAWYQQKPGQSPKLLIYWASTRHTGVPDRFTGSGSGTDYTLTISSVQAEDLALYYCQQHYSTPWTFGGGTKLEIKR
notes: also called 4C12 anti-PD-1 antibody
Turning to B3, in the assay with human PD-1 [5], the Ka was found to be 3.14e+06 M⁻¹ and the Kd was determined as 319 nM.

The term EC50 (read off the curve) denotes the concentration giving half of the maximal effect. The low end stands for greater potency, the high end for weaker potency. As a reminder, the Kd is the concentration at which binding is half-saturated. Low readings indicate tighter binding, high ones weaker binding. In general, koff refers to the rate constant with which the complex falls apart. The low end stands for slow dissociation, the high end for fast dissociation. For orientation: kon means the second-order rate constant of association. A higher kon goes with faster complex formation.
